From PMC5725467, “Elongated Hypocotyl 5-Homolog (HYH) Negatively Regulates Expression of the Ambient Temperature-Responsive MicroRNA Gene MIR169”

Legend:
[1] = target: T1, HYH.2-His (HYH splice isoform 2) (Arabidopsis thaliana, UniProt Q8W191 1-149); test: EMSA; 100 ng protein; EMSA: LightShift Chemiluminescent EMSA Kit (manufacturer's instructions), 100 ng HYH.2-His, room temperature 30 min, 8% native polyacrylamide gel; buffer, salt; settings: protein: recombinant; tags: His (pET28a+); chain copies: 2; label: 5'-biotin; blunt
T1 sequence: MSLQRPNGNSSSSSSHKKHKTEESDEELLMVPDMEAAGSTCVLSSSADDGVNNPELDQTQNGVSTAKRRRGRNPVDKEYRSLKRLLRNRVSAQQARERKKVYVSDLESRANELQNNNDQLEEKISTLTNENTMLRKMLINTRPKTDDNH

[2] = target: T1, HYH.2-His (HYH splice isoform 2); test: competition; 100x, 400x, 1600x molar excess over labeled N1; gradual decrease of shift; EMSA: LightShift Chemiluminescent EMSA Kit (manufacturer's instructions), 100 ng HYH.2-His, room temperature 30 min, 8% native polyacrylamide gel; buffer, salt; settings: protein: recombinant; tags: His (pET28a+); chain copies: 2; label: none; blunt

B1: miR169a G-box-like (G) (dsDNA)
DNA 1: TGTACGGCCACGCAAAAGTGACCTAC
DNA 2: GTAGGTCACTTTTGCGTGGCCGTACA
- binding result [1]: binds

B2: miR169a NC1 (dsDNA)
DNA 1: ATCTTCTGTTTAACAACATATG
DNA 2: CATATGTTGTTAAACAGAAGAT
- binding result [1]: no binding

B3: miR169a G-box-like, unlabeled competitor (dsDNA)
DNA 1: TGTACGGCCACGCAAAAGTGACCTAC
DNA 2: GTAGGTCACTTTTGCGTGGCCGTACA
- binding result [2]: binds
